For test [1], the target named is T1, MYD88 L265P peptide on HLA-B*07:02 (human).
T1 peptide: RPIPIKYKAM
Nature of the test: printed as KD (TCR affinity/avidity): non-linear curve analysis of the IFNγ ELISA response; TCR-transduced CD8+ T cells from healthy donors with K562 cells transduced with HLA*B07:02 and loaded with titrated peptide; full-length, on cells. (In general: In an ELISA, binding on a coated surface is turned into a signal by an enzyme label.)

The target of test [2] is T2, human self peptide predicted by Expitope for TCR2304 (source protein not named) peptide on HLA-B*07:02 (human).
T2 peptide: LPIHITYAAM
Put plainly: cytokine release.

The target of test [3] is T3, human self peptide predicted by Expitope for TCR2304 (source protein not named) peptide on HLA-B*07:02 (human).
T3 peptide: RPRMIGYGAI
Nature of the test: cytokine release.

The target in test [4] is T4, human self peptide predicted by Expitope for TCR2304 (source protein not named) peptide on HLA-B*07:02 (human).
T4 peptide: RPAMIPYWAL
Nature of the test: cytokine release.

In test [5] the target is T5, human self peptide predicted by Expitope for TCR2304 (source protein not named) peptide on HLA-B*07:02 (human).
T5 peptide: VPIIIKYLMF
Nature of the test: cytokine release.

Test [6] has as its target T6, human self peptide predicted by Expitope for TCR2304 (source protein not named) peptide on HLA-B*07:02 (human).
T6 peptide: RPVPISYHQL
Put plainly: cytokine release.

Test [7] has as its target T7, human self peptide predicted by Expitope for TCR2304 (source protein not named) peptide on HLA-B*07:02 (human).
T7 peptide: KPIRIGYKIW
Nature of the test: cytokine release.

Test [8] deals with T8, human self peptide predicted by Expitope for TCR2304 (source protein not named) peptide on HLA-B*07:02 (human).
T8 peptide: RPDLIDYKSL
Nature of the test: cytokine release.

Test [9] addresses T9, human self peptide predicted by Expitope for TCR2304 (source protein not named) peptide on HLA-B*07:02 (human).
T9 peptide: LPLYISYVAM
Put plainly: cytokine release.

In test [10] the target is T10, human self peptide predicted by Expitope for TCR2304 (source protein not named) peptide on HLA-B*07:02 (human).
T10 peptide: LPTRIAYYAM
Put plainly: cytokine release.

Test [11] deals with T11, human self peptide predicted by Expitope for TCR2304 (source protein not named) peptide on HLA-B*07:02 (human).
T11 peptide: TPPKIPYKAI
Nature of the test: cytokine release.

Test [12] has as its target T12, human self peptide predicted by Expitope for TCR2304 (source protein not named) peptide on HLA-B*07:02 (human).
T12 peptide: LPQSIVYKYM
Nature of the test: cytokine release.

Test [13] deals with T13, human self peptide predicted by Expitope for TCR2304 (source protein not named) peptide on HLA-B*07:02 (human).
T13 peptide: RPQPIYYGFS
Put plainly: cytokine release.

In test [14] the target is T14, MYD88 L265P epitope of SEQ ID NO: 2 with alanine at position 2 (alanine scan); residues derived from the … (human).
T14 peptide: RAIPIKYKAM
Nature of the test: cytokine release.

Consider twelve molecules from patent US20220064257A1 (published 2022).

Values joined by “and” are separate entries in the source; they are usually repeats but may differ in a detail not shown here. Equal entries are not always repeated.

B1: TCR1336 (TCR, V domains shown)
Valpha: GENVEQHPSTLSVQEGDSAVIKCTYSDSASNYFPWYKQELGKRPQLIIDIRSNVGEKKDQRIAVTLNKTAKHFSLHITETQPEDSAVYFCAASGRYDYKLSFGAGTTVTVRA
Vbeta: DAMVIQNPRYQVTQFGKPVTLSCSQTLNHNVMYWYQQKSSQAPKLLFHYYDKDFNNEADTPDNFQSRRPNTSFCFLDIRSPGLGDAAMYLCATASDLQGDRSTEAFFGQGTRLTVV
As for B1, in test [1], the EC50 of peptide was 0.387 µg/ml and 310 nM.

B2: TCR2219 (TCR, V domains shown)
Valpha: QQPVQSPQAVILREGEDAVINCSSSKALYSVHWYRQKHGEAPVFLMILLKGGEQMRHEKIFASFNEKKQQSSLYLTASQLSYSGTYFCGTAHLRAGSYQLTFGKGTKLSVIP
Vbeta: EAQVTQNPRYLITVTGKKLTVTCSQNMNHEYMSWYRQDPGLGLRQIYYSMNVEVTDKGDVPEGYKVSRKEKRNFPLILESPSPNQTSLYFCASSSSSGGAFNEQFFGPGTRLTVL
Turning to B2, the EC50 of peptide in test [1] is 0.123 µg/ml and 100 nM.

B3: TCR2709 (TCR, V domains shown)
Valpha: DAKTTQPNSMESNEEEPVHLPCNHSTISGTDYIHWYRQLPSQGPEYVIHGLTSNVNNRMASLAIAEDRKSSTLILHRATLRDAAVYYCILRDRYGGSQGNLIFGKGTKLSVKP
Vbeta: NAGVTQTPKFRVLKTGQSMTLLCAQDMNHEYMYWYRQDPGMGLRLIHYSVGEGTTAKGEVPDGYNVSRLKKQNFLLGLESAAPSQTSVYFCASSYWPTTGESTDTQYFGPGTRLTVL
For the molecule B3, in test [1], the EC50 of peptide is 0.102 µg/ml and 83 nM.

B4: TCR2705 (TCR, V domains shown)
Valpha: QKEVEQDPGPLSVPEGAIVSLNCTYSNSAFQYFMWYRQYSRKGPELLMYTYSSGNKEDGRFTAQVDKSSKYISLFIRDSQPSDSATYLCAMSGTGGFKTIFGAGTRLFVKA
Vbeta: ETGVTQTPRHLVMGMTNKKSLKCEQHLGHNAMYWYKQSAKKPLELMFVYSLEERVENNSVPSRFSPECPNSSHLFLHLHTLQPEDSALYLCASSQDRPNYYGYTFGSGTRLTVV
On to B4, for which the EC50 of peptide in test [1] is 0.02 µg/ml and 16 nM.

B5: TCR2207 (TCR, V domains shown)
Valpha: GQNIDQPTEMTATEGAIVQINCTYQTSGFNGLFWYQQHAGEAPTFLSYNVLDGLEEKGRFSSFLSRSKGYSYLLLKELQMKDSASYLCAVDVGYSTLTFGKGTMLLVSP
Vbeta: GAVVSQHPSWVICKSGTSVKIECRSLDFQATTMFWYRQFPKQSLMLMATSNEGSKATYEQGVEKDKFLINHASLTLSTLTVTSAHPEDSSFYICSARDRSGTLGGELFFGEGSRLTVL
For the molecule B5, in test [1], the EC50 of peptide was 0.003 µg/ml and 2.4 nM.

B6: TCR2202 (TCR, V domains shown)
Valpha: LAKTTQPISMDSYEGQEVNITCSHNNIATNDYITWYQQFPSQGPRFIIQGYKTKVTNEVASLFIPADRKSSTLSLPRVSLSDTAVYYCLSLSDSNYQLIWGAGTKLIIKP
Vbeta: DSGVTQTPKHLITATGQRVTLRCSPRSGDLSVYWYQQSLDQGLQFLIQYYNGEERAKGNILERFSAQQFPDLHSELNLSSLELGDSALYFCASSVGQGSYEQYFGPGTRLTVT
For the molecule B6, the EC50 of peptide in [1] was 0.033 µg/ml and 27 nM.

B7: TCR2205 (TCR, V domains shown)
Valpha: LAKTTQPISMDSYEGQEVNITCSHNNIATNDYITWYQQFPSQGPRFIIQGYKTKVTNEVASLFIPADRKSSTLSLPRVSLSDTAVYYCLVGRDGGSYIPTFGRGTSLIVHP
Vbeta: DSGVTQTPKHLITATGQRVTLRCSPRSGDLSVYWYQQSLDQGLQFLIHYYNGEERAKGNILERFSAQQFPDLHSELNLSSLELGDSALYFCASSAGQGAYEQYFGPGTRLTVT
As for B7, the EC50 of peptide in test [1] was 0.004 µg/ml and 3.2 nM.

B8: TCR2719 (TCR, V domains shown)
Valpha: LAKTTQPISMDSYEGQEVNITCSHNNIATNDYITWYQQFPSQGPRFIIQGYKTKVTNEVASLFIPADRKSSTLSLPRVSLSDTAVYYCLVGADSNYQLIWGAGTKLIIKP
Vbeta: DSGVTQTPKHLITATGQRVTLRCSPRSGDLSVYWYQQSLDQGLQFLIQYYNGEERAKGNILERFSAQQFPDLHSELNLSSLELGDSALYFCASSPGGGAYEQYFGPGTRLTVT
With B8, the EC50 of peptide in [1] was 0.024 µg/ml and 19 nM.

B9: TCR1605 (TCR, V domains shown)
Valpha: GESVGLHLPTLSVQEGDNSIINCAYSNSASDYFIWYKQESGKGPQFIIDIRSNMDKRQGQRVTVLLNKTVKHLSLQIAATQPGDSAVYFCAEGTGSARQLTFGSGTQLTVLP
Vbeta: DVKVTQSSRYLVKRTGEKVFLECVQDMDHENMFWYRQDPGLGLRLIYFSYDVKMKEKGDIPEGYSVSREKKERFSLILESASTNQTSMYLCASGPFRDSVLTLVANVLTFGAGSRLTVL
For B9, the EC50 of peptide in test [1] was 0.009 µg/ml and 7.4 nM.

B10: TCR2716 (TCR, V domains shown)
Valpha: AQTVTQSQPEMSVQEAETVTLSCTYDTSENNYYLFWYKQPPSRQMILVIRQEAYKQQNATENRFSVNFQKAAKSFSLKISDSQLGDTAMYFCAFMKPYSGGGADGLTFGKGTHLIIQP
Vbeta: AAGVIQSPRHLIKEKRETATLKCYPIPRHDTVYWYQQGPGQDPQFLISFYEKMQSDKGSIPDRFSAQQFSDYHSELNMSSLELGDSALYFCASSLAGTTVYNEQFFGPGTRLTVL
As for B10, in [1], the EC50 of peptide is 0.099 µg/ml and 81 nM.

B11: TCR2304 (TCR, V domains shown)
Valpha: GQNIDQPTEMTATEGAIVQINCTYQTSGFNGLFWYQQHAGEAPTFLSYNVLDGLEEKGRFSSFLSRSKGYSYLLLKELQMKDSASYLCAVRASGTYKYIFGTGTRLKVLA
Vbeta: DAGVIQSPRHEVTEMGQEVTLRCKPISGHNSLFWYRQTMMRGLELLIYFNNNVPIDDSGMPEDRFSAKMPNASFSTLKIQPSEPRDSAVYFCASQDSYEQYFGPGTRLTVT
On to B11, for which the binding result in test [2], in test [3], in [4], in [5], in test [6] and in [7] was “no recognition” each time. Also, the binding result in test [8], in [9], in test [10], in [11], in test [12] and in test [13] was “no recognition” throughout. The binding result in test [14] is “no recognition”. The EC50 of peptide in test [1] was 0.003 µg/ml and 2.4 nM.

B12: TCR1610 (TCR, V domains shown)
Valpha: KQEVTQIPAALSVPEGENLVLNCSFTDSAIYNLQWFRQDPGKGLTSLLLIQSSQREQTSGRLNASLDKSSGRSTLYIAASQPGDSATYLCAPLGGGYNKLIFGAGTRLAVHP
Vbeta: NAGVTQTPKFRILKIGQSMTLQCAQDMNHNYMYWYRQDPGMGLKLIYYSVGAGITDKGEVPNGYNVSRSTTEDFPLRLELAAPSQTSVYFCASRLPTTDEKLFFGSGTQLSVL
On to B12, for which the EC50 of peptide in test [1] is 0.009 µg/ml and 7.4 nM.
